Laboratory results reported in publication PMC9527803.

Molecular target: baker's yeast alcohol dehydrogenase (baker's yeast) (UniProt P00330)
Experiment: native MS; nano-ESI from 0.2 mol/L ammonium acetate, protein 2 to 5 x 10^-6 mol/L, Q Exactive UHMR modified for deposition

baker's yeast alcohol dehydrogenase (from UniProt P00330 1-348) (enzyme)
stoichiometry N: 4
